From patent publication US20110301228

Molecular target: native rat tail collagen type I (BD Biosciences), P02454
Sequence (P02454 152-1207, chain 1 of 2): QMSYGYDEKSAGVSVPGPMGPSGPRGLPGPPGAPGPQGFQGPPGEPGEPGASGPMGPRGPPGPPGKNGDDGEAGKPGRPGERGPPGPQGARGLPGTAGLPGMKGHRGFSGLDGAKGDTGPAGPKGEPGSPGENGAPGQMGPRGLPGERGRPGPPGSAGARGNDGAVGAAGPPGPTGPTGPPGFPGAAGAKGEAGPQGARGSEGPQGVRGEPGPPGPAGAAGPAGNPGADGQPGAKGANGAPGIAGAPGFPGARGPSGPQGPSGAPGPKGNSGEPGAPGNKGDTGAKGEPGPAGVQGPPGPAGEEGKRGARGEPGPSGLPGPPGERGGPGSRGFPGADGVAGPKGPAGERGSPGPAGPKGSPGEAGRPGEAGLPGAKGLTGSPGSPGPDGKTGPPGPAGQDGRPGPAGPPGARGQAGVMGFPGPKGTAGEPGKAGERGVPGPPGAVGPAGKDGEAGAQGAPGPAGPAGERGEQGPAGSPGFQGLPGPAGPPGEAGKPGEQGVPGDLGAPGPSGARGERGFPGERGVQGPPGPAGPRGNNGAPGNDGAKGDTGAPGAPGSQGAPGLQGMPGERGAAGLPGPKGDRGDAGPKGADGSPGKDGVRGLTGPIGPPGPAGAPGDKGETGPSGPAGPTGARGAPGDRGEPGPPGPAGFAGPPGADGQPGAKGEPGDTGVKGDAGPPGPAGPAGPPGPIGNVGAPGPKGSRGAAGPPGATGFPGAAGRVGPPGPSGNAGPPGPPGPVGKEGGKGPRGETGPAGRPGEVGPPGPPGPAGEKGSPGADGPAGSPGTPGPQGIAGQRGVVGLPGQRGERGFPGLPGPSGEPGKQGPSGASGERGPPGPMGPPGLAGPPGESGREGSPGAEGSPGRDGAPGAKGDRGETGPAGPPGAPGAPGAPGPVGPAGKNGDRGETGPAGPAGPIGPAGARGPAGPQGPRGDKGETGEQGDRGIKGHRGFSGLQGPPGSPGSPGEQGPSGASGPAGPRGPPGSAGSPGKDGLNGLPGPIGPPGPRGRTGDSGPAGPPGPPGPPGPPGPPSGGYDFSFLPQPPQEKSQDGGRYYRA
Sequence (chain, as listed by the source, chain 2 of 2): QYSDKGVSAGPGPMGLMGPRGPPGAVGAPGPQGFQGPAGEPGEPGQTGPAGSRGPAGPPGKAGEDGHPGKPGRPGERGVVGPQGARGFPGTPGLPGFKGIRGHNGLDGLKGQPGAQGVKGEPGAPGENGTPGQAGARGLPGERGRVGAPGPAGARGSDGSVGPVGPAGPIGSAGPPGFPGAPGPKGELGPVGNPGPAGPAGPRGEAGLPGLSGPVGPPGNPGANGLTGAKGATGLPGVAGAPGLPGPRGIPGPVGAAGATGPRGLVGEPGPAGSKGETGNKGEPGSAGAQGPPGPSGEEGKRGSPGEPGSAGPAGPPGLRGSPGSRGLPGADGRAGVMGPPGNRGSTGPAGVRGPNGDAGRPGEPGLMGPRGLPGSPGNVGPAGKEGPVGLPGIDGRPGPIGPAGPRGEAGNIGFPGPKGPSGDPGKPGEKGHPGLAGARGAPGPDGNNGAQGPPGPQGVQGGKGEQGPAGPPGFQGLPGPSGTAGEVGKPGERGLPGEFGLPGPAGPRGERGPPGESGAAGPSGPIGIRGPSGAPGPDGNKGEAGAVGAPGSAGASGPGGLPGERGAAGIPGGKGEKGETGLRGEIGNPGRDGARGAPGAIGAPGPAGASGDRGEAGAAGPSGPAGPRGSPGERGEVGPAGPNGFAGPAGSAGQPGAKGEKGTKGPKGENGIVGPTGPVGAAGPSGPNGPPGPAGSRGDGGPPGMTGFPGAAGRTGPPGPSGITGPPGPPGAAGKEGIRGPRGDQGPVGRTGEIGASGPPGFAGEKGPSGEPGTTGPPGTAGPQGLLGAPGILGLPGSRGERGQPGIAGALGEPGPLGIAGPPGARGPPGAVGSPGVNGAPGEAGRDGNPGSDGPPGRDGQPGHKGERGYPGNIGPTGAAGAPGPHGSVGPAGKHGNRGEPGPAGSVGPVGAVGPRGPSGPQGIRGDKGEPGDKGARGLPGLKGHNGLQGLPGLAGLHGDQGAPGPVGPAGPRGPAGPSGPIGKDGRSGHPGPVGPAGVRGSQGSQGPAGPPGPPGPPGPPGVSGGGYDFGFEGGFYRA

B1: recombinant human MMP1 (wild-type), secreted by AdhGRE.MMP1-infected HTM cells and activated with APMA (active form, 41 kDa) (protein)
chain: FVLTEGNPRWEQTHLTYRIENYTPDLPRADVDHAIEKAFQLWSNVTPLTFTKVSEGQADIMISFVRGDHRDNSPFDGPGGNLAHAFQPGPGIGGDAHFDEDERWTNNFREYNLHRVAAHELGHSLGLSHSTDIGALMYPSYTFSGDVQLAQDDIDGIQAIYGRSQNPVQPIGPQTPKACDSKLTFDAITTIRGEVMFFKDRFYMRTNPFYPEVELNFISVFWPQLPNGLEAAYEFADRDEVRFFKGNKYWAVQGQNVLHGYPKDIYSSFGFPRTVKHIDAALSEENTGKTYFFVANKYWRYDEYKRSMDPGYPKMIAHDFPGIGHKVDAVFMKDGFFYFFHGTRQYKFDPKTKRILTLQKANSWFNCRKN
With B1 as the protein, how does the “digestion of native rat tail collagen type I (PAGE gel, Coomassie stain)” value read?
Its value is “digested native collagen type I into smaller fragments”.
